Laboratory results as given in patent publication US20230346885A1 (published 2023).
Substitutions are numbered along the chain they refer to.

B1: TCR of SEQ ID NOs 465 and 466 (TCR, V domains shown)
Valpha: KQEVTQIPAALSVPEGENLVLNCSFTDSAIYNLQWFRQDPGKGLTSLLLIQSSQREQTSGRLNASLDKSSGRSTLYIAASQPGDSATYLCAVRSYNQFYFGTGTSLTVIP
Vbeta: NAGVTQTPKFQVLKTGQSMTLQCAQDMNHEYMSWYRQDPGMGLRLIHYSVGAGITDQGEVPNGYNVSRSTTEDFPLRLLSAAPSQTSVYFCASSPGGPSTEAFFGQGTRLTVV
B2: TCR of SEQ ID NOs 485 and 486 (TCR, V domains shown)
Valpha: KQEVTQIPAALSVPEGENLVLNCSFTDSAIYNLQWFRQDPGKGLTSLLLIQSSQREQTSGRLNASLDKSSGRSTLYIAASQPGDSATYLCAVRLRGSARQLTFGSGTQLTVLP
Vbeta: NAGVTQTPKFRVLKTGQSMTLLCAQDMNHEYMYWYRQDPGMGLRLIHYSVGEGTTAKGEVPDGYNVSRLKKQNFLLGLESAAPSQTSVYFCASSYSIEFTEAFFGQGTRLTVV
B3: TCR of SEQ ID NOs 487 and 488 (TCR, V domains shown)
Valpha: B2 Valpha with V92L, R93G, L94Y
Vbeta: NAGVTQTPKFRVLKTGQSMTLLCAQDMNHEYMYWYRQDPGMGLRLIHYSVGEGTTAKGEVPDGYNVSRLNKREFSLRLESAAPSQTSVYFCASSVGYPGELFFGEGSRLTVL
B4: TCR of SEQ ID NOs 489 and 490 (TCR, V domains shown)
Valpha: KQEVTQIPAALSVPEGENLVLNCSFTDSAIYNLQWFRQDPGKGLTSLLLIQSSQREQTSGRLNASLDKSSGRSTLYIAASQPGDSATYLCAVRGDYKLSFGAGTTVTVRA
Vbeta: NAGVTQTPKFQVLKTGQSMTLQCAQDMNHNSMYWYRQDPGMGLRLIYYSASEGTTDKGEVPNGYNVSRLNKREFSLRLESAAPSQTSVYFCASSDPLGGLYGYTFGSGTRLTVV
B5: TCR of SEQ ID NOs 491 and 492 (TCR, V domains shown)
Valpha: KQEVTQIPAALSVPEGENLVLNCSFTDSAIYNLQWFRQDPGKGLTSLLLIQSSQREQTSGRLNASLDKSSGRSTLYIAASQPGDSATYLCAVSNSGGYQKVTFGTGTKLQVIP
Vbeta: B1 Vbeta with N62D, P95Y, G96S, G97T, P98G, T100Y, A102Q, F103Y, Q106P, V113T
B6: TCR of SEQ ID NOs 493 and 494 (TCR, V domains shown)
Valpha: B5 Valpha with S93G
Vbeta: B1 Vbeta with P95Y, G96S, G97T, P98G, T100Y, A102Q, F103Y, Q106P, V113T
B7: TCR of SEQ ID NOs 495 and 496 (TCR, V domains shown)
Valpha: B5 Valpha with S93G
Vbeta: B1 Vbeta with P95Y, G96S, G97T, P98G, T100Y, E101G, A102Y, F103T, Q106S
B8: TCR of SEQ ID NOs 515 and 516 (TCR, V domains shown)
Valpha: B1 Valpha with R93V, Y95N, Q97D, F98M, Y99R, T102A, S105R, I109K
Vbeta: NAGVTQTPKFQVLKTGQSMTLQCAQDMNHEYMSWYRQDPGMGLRLIHYSVGAGITDQGEVPNGYNVSRSTTEDFPLRLLSAAPSQTSVYFCASSLHSPVQGDYGYTFGSGTRLTVV
B9: TCR of SEQ ID NOs 517 and 518 (TCR, V domains shown)
Valpha: B1 Valpha with V92P, R93G, S94G, N96Q, Q97K, F98V, Y99T, S105K, T107Q
Vbeta: NAGVTQTPKFQVLKTGQSMTLQCAQDMNHEYMSWYRQDPGMGLRLIHYSVGAGITDQGEVPNGYNVSRSTTEDFPLRLLSAAPSQTSVYFCASRRDPLGGYTFGSGTRLTVV
B10: TCR of SEQ ID NOs 519 and 520 (TCR, V domains shown)
Valpha: KQEVTQIPAALSVPEGENLALNCSFTDSAIYNLQWFRQDPGKGLTSLLLIQSSQREQTSGRLNASLDKSSGRSTLYIAASQPGDSATYLCAVNAGGTSYGKLTFGQGTILTVHP
Vbeta: NAGVTQTPKFQVLKTGQSMTLQCAQDMNHNSMYWYRQDPGMGLRLIYYSASEGTTDKGEVPNGYNVSRLNKREFSLRLESAAPSQTSVYFCASSYWREYYEQYFGPGTRLTVT

What was measured:
Experiment in all cases: binding, other
[1] = biological target: T1, PAEP peptide on HLA (human)
T1 peptide: AMATNNISL

[2] = biological target: T2, PAGE2 peptide on HLA (human)
T2 peptide: IMPTFDLTKV

[3] = biological target: T3, PAGE5 peptide on HLA (human)
T3 peptide: TLPTFDPTKV

[4] = biological target: T4, RLN1 peptide on HLA (human)
T4 peptide: FIANLPPELKA

binding result [2]	binding result [3]	binding result [4]	other results	Binder
			binding result [1]: recognises	B1
recognises				B2
recognises				B3
recognises				B4
	recognises			B5
	recognises			B6
	recognises			B7
		recognises		B8
		recognises		B9
		recognises		B10
